Test results: PMC3324987 (Frontiers in Molecular Neuroscience, 2012)

Columns and labels:
[1] = test system: apo-CaBP1; assay: ITC and HSQC of NSCaTE binding to apo-CaBP1; parameters: species or system human; conditions: ITC and NMR, compared to Ca^2+-CaBP1
[2] = molecular target: C-lobe of calmodulin (residues 78-148) (UniProt P0DP23 79-149); assay: other fluorescence titration
[3] = molecular target: N-lobe of calmodulin (residues 1-77) (UniProt P0DP23 2-78); assay: other fluorescence titration

binding to apo-CaBP1 [1] | Ka [2] [M⁻¹] | Ka [3] [M⁻¹] | Molecule
extremely weak |  |  | long NSCaTE peptide: biosynthetically produced N-terminal region of Cav1.2 (residues 1–68), expressed in E. coli
 | 232000 | 1.39e+06 | long NSCaTE peptide, Cav1.2 N-terminal cytoplasmic region residues 1-68 (domain or fragment) MVNENTRMYIPEENHQGSNYGSPRPAHANMNANAAAGLAPEHIPTPGAALSWQAAIDAARQAKLMGSA
